Experimental findings from a protein production outcome set (Wang et al. 2014) are described below.

This data set can be described thus: label from the status in PepcDB records.
“MKKFLFDLFPLILFFVAYRYADIYAATAVAITASIAQILWLRLTGKAIEGMHWINLSVIVIFGGATLWLHSDVFIKWKPTVLYWLFGGALLGARYLFGRNLVRRLLGKQIALPDPVWERLNLSWALFFVAAGAVNLYVAFSGHFTESQWVNFKVFGLMGLLVAFVIAQSLWLGKHLQASDTPDQDRNED”: the protein production result is listed as “not failed”.

For the sequence “MESLPFVAAQPTIVPQLQQQVTGLTSSLNSQEKKELTHKLESIFNNTQVQIAVLIVSTTKDETIEQYATRVFDNWRLGDAKRNDGILIVVAWSDRTVRIQVGYGLEEKVTDALAGDIIRSNMIPAFKQQKLAKGLELAIIALNNQLTSQHQYPANPSESESTSSTDHYYFAIFWVFAVMFFPFWFFHQGSNFCRACKSGVCISAIHLLDLFLFSDKTFSIAVFSFFFTFTIFMVFTCLCVLQKRASGRSYHSDNSGSAGGSSGGASGRWLEHHHHHH”, the protein production entry is “failed”.

For the sequence “MPETYIITPNLNGVSFLEVYFRSLLRQTYEDFRVVFIDNGSSDGSVDFIKSNFSEYLGDRIILIENHENLGFAASNNQGIRIALDDPQCRYVVCLNNDTEVLPDFIENLILAAGDDERVGSVQARMIWGQNRKLIDSAGLEYSLNGLGFNRGAYEPVENFNERARILGCCAGACLYRREALEDVEVDAEYFDEDFFAYYEDFDLALRLRSAGWDSLYAPDATVYHYKGGTNPFISDFTVYHNWRNYTWTFIKNMPADLLLMCLPLFVLTEIIQVLLNIKRGKLIILRAKYDAYRGLGRVIRKRRALKRVPESEIKEYLTMRWSVKVPSPQED”, the protein production result is listed as “failed”.

“MGHHHHHHSHSEVAIKIDFDFAPGSFDDQYQGCSKQVMEKLTQGDYFTKDIEAQKNYFRMWQKAHLAWLNQGKVLPQNMTTTHAVAILFYTLNSNVHSDFTRAMASVARTPQQYERSFHFKYLHYYLTSAIQLLRKDSIMENGTLCYEVHYRTKDVHFNAYTGATIRFGQFLSTSLLKEEAQEFGNQTLFTIFTCLGAPVQYFSLKKEVLIPPYELFKVINMSYHPRGNWLQLRSTGNLSTYNCQLLKASSKKC”: the protein production entry is recorded as “failed”.

Take “ANFADSGKSLPPSMTSVPVTPVAAHTSSTPLTDIAADTTANDAPAIAAEFGQPDWPEEFGRKITWLATQRMQAAELKLHPAHLGPIEISLQLSDDQRLTAQFISHHPAVREAIEANLPRLREIMAENGITLADTSVSADT”: the protein production result is “not failed”.

In the case of “MFIKVKLPWDVTIPAEDMDTGLMLQRAIVIRLLEAFSKEKATKDLGYLITPTILENIGEGKIKEQTGEIQFPVVFNGICFKMFKGEIVHGVVHKVHKTGVFLKSGPYEIIYLSHMKMPGYEFIPGENPFFMNQYMSRIQIGARVRFVVLDTEWREAEKDFMALASIDGDNLGPF”, the protein production result is recorded as “failed”.

For “MRAASVPFSQRTTCKGRDGFDQFQIAFASAAERDHSCDQGRRQPGGRPPIQVAAVSGFMHRQGKTPMPTLTINGRSLSVDAANDTPLLWAIREQLQMTGTKFGCGAGLCGACTVHVNGEAVRSCQTMVGDVAGKKITTIEGLSAKGDHPLQKAWIAEQVPQCGYCQSGQIMQAASLLAKNANPTKEEVVAHMDGNLCRCMTYSRIQKAIMRAATEMRTASASGNERRPT”, the protein production entry is recorded as “failed”.

Consider “MKKTLILGATPETNRYAYLAAERLKSHGHEFIPVGRKKGEVLGKTIINERPVIEGVDTVTLYINPQNQLSEYNYILSLKPKRVIFNPGTENEELEEILSENGIEPVIGCTLVMLSAGT”, for which the protein production result is listed as “failed”.

In the case of “MPQVALFGAVGAIGQSIARTLRSQGQPYRVVGRSQSSLLKAYGADPLAEPVTWDPDQPASVEAAAAGIDTLIYLVGVDYWRFELHPQLMRQTLDGAIAAGVRRILLIGTVYPYGMARSNPVAEQHPRQPNSFKGRMRKAQEDLLWKAHADGKIQATVLRLPDFYGPGVDKSLLHGAFQAAVQGGTANLVGPLDRPHEFVFVPDVGPVVCRLIQQPEAFGKTWHLGGAGVTSQRELLELIRQHGGARFKQRVIGKPLLRLLGLFDPLLREMVEMHYLISSPLILDDSALQALIGPIAKTSYTEGVRQTLAASAGAPQNVKR”, the protein production entry is listed as “failed”.

Take “MSLKITDVDVWVVNLPLVNPFTSSFETKTGETRTVVRVRTDSGVEGWGETMWGAPVAAIVRRMAPDLIGTSPFALEAFHRKQHMVPFFYGYLGYAAIAAVDVACWDAMGKATGQSVTDLLGGAVRDEVPITALITRADAPGATPADLPKAMAEHAVRVVEEGGFDAVKLKGTTDCAGDVAILRAVREALPGVNLRVDPNAAWSVPDSVRAGIALEELDLEYLEDPCVGIEGMAQVKAKVRIPLCTNMCVVRFEDFAPAMRLNAVDVIHGDVYKWGGIAATKALAAHCETFGLGMNLHSGGELGIATAAHLAVVSSTPVLSRAIDSMYYLHADDIIEPLHLENGRLRVPSGPGLGVSVDEDKLRHYAGVNERDGDLTGEGHHHHHH”: the protein production entry was “not failed”.

With “MKAEKNLNKTLKISYKALFFSFALTLIKLLAGFLGNSTALIADSIRSFSELINELKKLLEVFIASKPEDWSHNYGHGKVATLFTGAGACILLFAGIESISLASQELLIFIQGRETEAPEILALSAASLTLVSREIIPLFSSKGKEIEGTLSGTGIYTRNAQIRSLLLSCFVTLGIGCTFLPGKNWVVTDSFIAALMSLYLLGTSGKLLYGTANELIEASLDEEDNKKIRKIINTTEGVTGSGELKTRKIGNGIAINACITVSDSLNIQEVAEIADRVENRLKTVYGEDIYALVKAEPDPGRNCSFRKKMEFSEEGRKENKGINTQDKMLA”, the protein production result was “failed”.

In the case of “MPIRGFHYRGDEAIYPASVVKLFYLVAALEWLQQGMIQPSAELDRALRDMIVDSSNDATGYIVDLLSGTTSGPELGDGPFKTWQFQRNIVNRYYQSLMWPELQPINVNQKTWGDGPYGRERAFYGPEFENRNKLTTNATARLLHAIAGGVAVSPSASQRMLNLLNRPFDPRSLAEDPENQVTGFLGQDLPQGSQLWSKAGWMSRVRHDAAYLEIPGLPPHLLVAFTEGKEHANNEAILPFIAQQVRQQLQPALEHHHHHH”, the protein production result is “failed”.

Turning to “MRQTFIARKISFISLIHFRDEYMSPQNNHLQRPPAAVLYADELAKLKQNDNAPCPPGWQLSLPAARAFILGDEAQNISRKVVISPSAVERMLVTLATGRGLMLVGEPGTAKSLLSELLATAISGDAGLTIQGGASTTEDQIKYGWNYALLINHGPSTEALVPAPLYQGMRDGKIVRFEEITRTPLEVQDCLLGMLSDRVMTGPELTGEASQLYAREGFNIIATANTRDRGVNEMSAALKRRFDFETVFPIMDFAQELELVASASARLLAHSGIPHKVPDAVLELLVRTFRDLRANGEKKTSMDTLTAIMSTAEAVNVAHAVGVRAWFLANRAGEPADLVECIAGTIVKDNEEDRARLRRYFEQRVATHKEAHWQAYYQARHRLP”, the protein production entry is “failed”.

Take “MWWWSSSTKGRSNLERFLLGITPKPPSFSLPQEQGKEEIEYFRLGDLWDCYDEMSAYGFGTQVDLNNGETVMQYYVPYLSAIQIHTNKPALLSRNQNEVAESESSEGWSDSESEKLLSRSMSNDSSKTWDAVSEDSVFDPDGSPLLKDRLGNLDFKYIERDPPHKRIPLTDKINVLVEKYPGLMTLRSVDMSPASWMAVAWYPIYHIPTCRNEKDLTTGFLTYHTLSSSFQDNVVEGDQSNNNEETEFCEDSVINKRMPLPPFGVTTYKMQGDLWGKTGFDQDRLLYLQSAADSWLKQLNVDHHDYNFFLNSSF”: the protein production result was “failed”.

For the sequence “MSTDFDRIYLNQSKFSGRFRIADSGLGWKISTSGGSAANQARKPFLLPATELSTVQWSRGCRGYDLKINTKNQGVIQLDGFSQDDYNLIKNDFHRRFNIQVEQREHSLRGWNWGKTDLARNEMVFALNGKPTFEIPYARINNTNLTSKNEVGIEFNIQDEEYQPAGDE”, the protein production result was “not failed”.

On to “VALCVLRRSDGRVVLENTLSQQWLGNGSERDQLCSGWIEQAFDPARPNSSDYFETADGRHLYLSSAPTRYNGEDVLFCAFSDISARKQIEAALEEAKRLADTANEAKTLFLATMSHEIRTPLYGVLGTLELLSRTQ”, for which the protein production entry is “failed”.

For the sequence “MFRRTLPVLAAAVGLAAAAAGPATADDVPADRLPGHRVLDVMTFNIHHAQGTDDVLDLRRVANVIRKSGADVVGLQEVDKHYSARSDWADQPAELAELLGYHVVFGANIDNSPPAPGGHRVQYGTAILSRYPITASDNTWLYKSPGQEQRGLLHATLDVHGKKVEFYNTHLAAGSQADRLQQTAQVVDLIGTRKPGILVGDFNALPAAPESRPLQNAYTDAWAKSLHARGDGATYPAQSPTERIDLIYATRRVTPLVAQVLKDDPAASDHRPLLGKVLV”, the protein production result is “failed”.

In the case of “MSRRKKAYQGRKIGSQLLATLESEARKKVGYLQVKTVAEGSNKDYDRTNDFYRGLGFKKLEIFPQLWNPQNPCQILIKKLE”, the protein production entry is given as “failed”.

For “MQEIISFIVETASAWGYLGIIILMTLESCFIPFPSEVVMIPAGYLAHKGELDITLCILSGTLGSVLGALINYYICFFWGKNFVLKWGKYFGINEVKFAKFEEFFNKHGEFSTFTCRLLPGIRQYISMPAGLVKMKLVNFILFTALGSAIWVAILVFLGYYIGQNEELIKTYLTQILIIIIVFVILASLIYISKSKSLLKRLKFYLLRFVWRF”, the protein production result is “failed”.

On to “MILSRYIARRFLRMVFIVFLAFFGLMMLIDVLDQMRRFSDEGITLVQAGLLSLLRVPATLYTILPLIVILAAVALFLGLARSSELVVVRAAGRSGLRFLVAPMVVALALGTVAVTVLNPIVAGTSRQYDAAAGRLARGEASILSISKEGLWLRQGGSGEQTVIHALRSNTDGTRLYAVTFLTFDAEGRPTGRIAAEQAALERGYWQLSGAKSWDLTEANPEARAGLPGNLRVTSELTREGIQDSFGDPSAIPIWELPAYVAGLERAGFSARKHRVWMQMEFALPATLAAMVLVAAGFTMRHSRFGGTGRMVLLALLGGFSLFFLRNFAQVLGENGQIPILLAAWSPPLIGVMGSLGLLLHLEDG”, for which the protein production result is “failed”.

“MSLAQYPVIGIDDDEFATAKKLITKQEVRAVTLSKLRLQDDLVMWDIGAGSASVSIEASNLMPNGRIFALERNPQYLGFIRDNLKKFVARNVTLVEAFAPEGLDDLPDPDRVFIGGSGGMLEEIIDAVDRRLKSEGVIVLNAVTLDTLTKAVEFLEDHGYMVEVACVNVAKTKGLTEYKMFESHNPVYIITAWKSDEGHHHHHH”: the protein production entry was “not failed”.

For “MSLFKRSVVSEITSHAGVVFSTLVVVWLSVLLVRLLGEAAGGSIGADVVLGLAAFSTITALPTILAVSLFIAVLTTVTRNYRESEMVVWFASGLSLADWLRPVARVAVPIAMLVAALTLVASPWAYRQIGEYRERFEQRSDLSKVTAGQFAESGRGDRVFFAEDPVRPGDELGAVFARSIDPEWLSVLTASNARSETLPNGDRFLVLGEGHRYDLKPGTPEIRLVNFDQYGVRLESKAGEDPMAEARAAAERSSKARSTMQLVQDNTDSSWSQIMWRVAMPLAALNLALLAIPLGAVNPRLGRSGDLLIAGLVGLLYMNMINLSRAWISSGKISFSIGVWAVHAVVALLAAYLLMRRLRVKAPRNAGRGA”, the protein production result is recorded as “failed”.

Turning to “MILNPQQRTKLDSRRDDLFYAAPRFVTHVDDFFLARLTDLYRQYLQPQMRVLDLMSSWVSHLPPELSFQEVVGHGMNAAELARNPRLDRYFVQNLNEELALPLEDASFNAVLMAVSVQYLQYPEATFTEIARILKPQGVVIVSFSNRMFFEKAIQAWREGSEGDRVQLVQTYINSTPSLKVIATHLPRLWPWRGFTDPFYAVVGQKQAVLEHHHHHH”, the protein production entry is “not failed”.

In the case of “MRKDETSNTSPDISAAQPASALRYHLRPPRRNDGAAIHQLVSECPPLDLNSLYAYLLLCEHHAHTCVVAESPGGRIDGFVSAYLLPTRPDVLFVWQVAVHSRARGHRLGRAMLGHILERQECRHVRHLETTVGPDNQASRRTFAGLAGERGAHVSEQPFFDRQAFGGADHDDEMLLRIGPFTHPPH”, the protein production entry is listed as “failed”.
